According to the supplement of paper PMC10567573:

B1: CAMK2B (parent)
chain: YQQIKAGAYDFPSPEWDTVTPEAK

Variants of: B1
Assay: protein stability index of a GFP-peptide fusion (GPS, HEK-293T) (PSI 1-6); higher = more stable
Settings: c terminus: a fixed tail appended
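Note: lentivirally expressed fusions sorted by FACS into six bins by GFP to DsRed ratio, PSI derived from sequencing read proportions per bin multiplied by bin number.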

Protein stability index: each site, then its substitutions
E15: M 2.77 | P 2.77 | R 2.88 | W 2.21 | L 2.52 | S 3.39 | Y 1.99 | I 2.53 | Q 3.44 | N 3.41 | V 2.55 | T 2.67 | K 2.88
E22: W 2.08 | T 3.05 | V 2.82 | K 2.93 | L 2.98 | I 3.05 | F 2.3 | D 3.89 | P 2.93 | S 2.97 | M 2.63 | H 2.98 | N 3.41 | A 2.9 | Y 2.46 | R 2.91 | G 3.27 | C 2.82 | Q 2.67
K24: Y 3.04 | S 3.93 | H 3.6 | P 3.37 | A 3.78 | F 2.71 | V 3.55 | N 4.11 | E 4.21 | G 3.93 | I 3.59 | W 2.63 | C 3.38 | M 3.27 | D 4.11 | R 3.43 | L 3.1 | Q 3.81 | T 3.47
W16: A 4.07 | D 4.79 | G 4.35 | E 4.46 | K 3.45 | M 4.31 | L 4.36 | I 4.2 | C 4.18 | Y 3.53 | T 4.39 | S 4.58 | N 4.55 | F 4.16 | P 4.64 | V 4.2 | Q 4.28 | R 3.54 | H 4.35
P21: E 4.3 | N 3.78 | W 2.53 | S 3.62 | T 3.6 | V 3.42 | C 3.29 | Q 3.91 | F 2.78 | I 3 | K 3.76 | A 3.44 | H 3.42 | G 3.65 | L 3.28 | Y 3.08 | M 3.31 | D 4.05 | R 3.2
D17: W 2 | S 2.77 | V 2.3 | T 2.84 | R 2.57 | F 2.07 | L 2.51 | A 3.25 | M 2.6 | E 4.15 | C 2.34 | I 2.76 | N 3.15 | H 2.85 | Y 2.88 | P 3.27 | Q 3.17 | K 2.69 | G 2.69
A23: V 3.27 | R 3.69 | F 3.28 | C 2.98 | I 3.28 | L 2.81 | S 3.86 | Y 3.43 | W 3.25 | P 3.48 | K 3.82 | M 3.28 | H 3.92 | T 3.74 | N 3.97 | D 4.36 | G 3.94 | Q 4.06 | E 4.05
T18: M 3.24 | C 3.37 | S 3.88 | N 3.69 | Q 4.03 | Y 2.79 | G 3.56 | E 4.27 | H 3.63 | R 3.33 | I 3.06 | W 1.85 | L 3.35 | P 3.82 | A 3.69 | V 3.1 | F 3.09 | K 3.87 | D 4.25
V19: F 1.97 | H 4.01 | P 3.69 | K 3.66 | M 3.95 | Y 2.16 | G 3.92 | W 2.79 | C 3.82 | R 2.99 | N 3.97 | L 3.53 | E 3.8 | S 3.59 | T 3.96 | I 3.79 | A 3.48 | Q 4.01 | D 4.23
T20: Y 3.06 | I 3.16 | F 3.03 | Q 3.34 | G 3.7 | A 3.48 | P 3.18 | S 3.74 | K 3.41 | R 3.47 | H 3.86 | N 3.91 | D 4.31 | W 2.46 | M 3.16 | L 3.15 | C 3.51 | V 3.66 | E 3.93
